Key:
Assay in all cases: PD-L1 flow cytometry, IFNγ modulation
Assay type in all cases: cell-based, human
[1] = tested on: SKMES1 cells
Protocol: (§1) Samples (150 uL per tube) were first incubated with a blocking reagent at 1:20 for 15 min at room temperature. Alexa 488-conjugated PD-L1 antibody (CST cat #25048, Lot #2) and Alexa 488-conjugated isotype antibody (CST cat #2975, Lot #16) were added to experimental samples and isotype control samples, respectively, at a manufacturer recommended dilution of 1:50 and the samples were incubated for 30 min at room temperature. Other fluorophore-conjugates and PD-L1 antibodies, including those targeting different epitopes, can be readily used. Additionally, antibodies detecting other biomarkers with appropriate processing (e.g. permeabilization of cells) to predict response (e.g. p-STAT-1) can be used. Following the incubation with an antibody, 1 mL of 2% FBS in PBS was added to each tube to dilute the antibody. Samples were then centrifuged at 200 rcf for 5 min. Supernatant was carefully aspirated and 200 uL of 10% neutral buffered formalin (NBF) was added. Samples were then fixed for 10 min at room temperature. NBF was diluted with 1 mL of 2% FBS in PBS and the samples were centrifuged at 200 rcf for 5 min. Supernatant was aspirated and the cells were resuspended in 0.5 mL of 2% FBS in PBS for flow cytometric analysis. In this experiment, 10% NBF was used to fix cells, but other fixatives, for example, 4% paraformaldehyde can be used.
(§2) Flow cytometry was performed using BDTM LSR II cytometer and BD FACSDiva™ data acquisition software. Any commercially available flow cytometry analysis software can be used, such as FlowJo (BD) and FCS Express (De Novo Software). Additionally, other flow cytometry instruments can be readily used. A total of 20,000 events were recorded for each sample. A Scatter gate was first applied, and a singlet gate was then applied on the scatter population to exclude doublet population. A 488 nm blue laser and a 530 nm detector were used to capture PD-LL signal. Any signal above the isotype control signal of the singlet population was considered PD-L1+(see FIG. 33). Though it was excluded from this experiment, cell viability can be assessed, and dead cells excluded from analysis, using stains such as Live/Dead™ Fixable Dead Cell Stain (Thermo) for fixed cells, or either 7-AAD (7-Aminoactinomycin D) or Propidium Iodide for unfixed cells.
(§3) A percent change in PD-L1+ events between Untreated (non-modulated; vehicle control) and Treated (modulated with IFNγ) samples was calculated for each of the four cell lines tested (Table 2). […] A percent change in PD-L1 signal between Untreated and Treated samples was calculated for each of the four cell lines tested. […] The mean PD-L1 signal was used to calculate the percent change, however, median (as shown in FIGS. 34A-34H), geometric mean, mode or any other averaging method can also be used. To assess the difference in PD-L1 expression level or number of PD-L1+ events between Treated and Untreated samples, either a percent change or fold change can be calculated. Differences in PD-L1 expression level can also be assessed between a control sample with a known PD-L1 level and a clinical sample with an unknown PD-L1 level. To do so, the assay result of modulated and unmodulated clinical samples should be normalized to that of a control sample. A percent change or fold change between modulated and unmodulated samples can then be calculated using the normalized values. Baseline PD-L1 levels, as well as changes to PD-L1 upon modulation, can be used to predict response to therapy. As mentioned in the Methods section above, the antibody against PD-L1 used in this experiment targets extracellular portion of the PD-L1 molecule and as such, permeabilization was not performed. Antibodies such as those that target other PD-L1 domains would yield different PD-L1 expression patterns depending on the form(s) of PD-L1 present in the cell lines tested. Flow cytometry cannot detect PD-L1 molecules that are already secreted and not bound to other cell surfaces proteins. […]

[2] = tested on: H1299 cells
Protocol: as §1, §2, §3

[3] = tested on: H1650 cells
Protocol: as §1, §2, §3

[4] = modulated with IFNγ, 20,000 events recorded

B1: IFNγ: human IFNγ, modulator (10 ng/ml; Sigma Aldrich) (protein, UniProt P01579 24-161, looked up)
Interferon gamma: QDPYVKEAENLKKYFNAGHSDVADNGTLFLGILKNWKEESDRKIMQSQIVSFYFKLFKNFKDDQSIQKSVETIKEDMNVKFFNSNKKKRDDFEKLTNYSVTDLNVQRKAIHELIQVMAELSPAAKTGKRKRSQMLFRG
With B1 the “Mean PD-L1 signal in Singlets, % change (Treated - Untreated)/Untreated” value (“Mean PD-L1 signal in Singlets, % change” below) ([1]; IFNγ treated vs untreated) was 22%, the “Mean PD-L1 signal in Singlets, Fold change (Treated/Untreated)” value ([1]; IFNγ treated vs untreated) was 1.22 and the “Number of Events in PD-L1 + population, % change (Treated - Untreated)/Untreated” value ([1]; IFNγ treated vs untreated) was 3%. For the same molecule, the “Number of Events in PD-L1 + population, Fold change (Treated/Untreated)” value (shortened to “Number … Fold change (Treated/Untreated)”) ([1]; IFNγ treated vs untreated) was 1.03, the “Mean PD-L1 signal in Singlets, Treated” value ([1]; modulated with IFNγ) was 4228 and the “Number of Events in PD-L1 + population, Treated” value [1, 4] was 1772. For the same molecule, the “Mean PD-L1 signal in Singlets, % change” value ([2]; IFNγ treated vs untreated) was 24%, the “Mean PD-L1 signal in Singlets, Fold change (Treated/Untreated)” value ([2]; IFNγ treated vs untreated) was 1.24 and the “Number of Events in PD-L1 + population, % change (Treated - Untreated)/Untreated” value ([2]; IFNγ treated vs untreated) was 71%. For the same molecule, the “Number … Fold change (Treated/Untreated)” value ([2]; IFNγ treated vs untreated) was 1.71, the “Mean PD-L1 signal in Singlets, Treated” value ([2]; modulated with IFNγ) was 538 and the “Number of Events in PD-L1 + population, Treated” value [2, 4] was 3462. The “Mean PD-L1 signal in Singlets, % change” value ([3]; IFNγ treated vs untreated) was 63%, the “Mean PD-L1 signal in Singlets, Fold change (Treated/Untreated)” value ([3]; IFNγ treated vs untreated) was 1.63 and the “Number of Events in PD-L1 + population, % change (Treated - Untreated)/Untreated” value ([3]; IFNγ treated vs untreated) was 266%. For the same molecule, the “Number … Fold change (Treated/Untreated)” value ([3]; IFNγ treated vs untreated) was 3.66, the “Mean PD-L1 signal in Singlets, Treated” value ([3]; modulated with IFNγ) was 714 and the “Number of Events in PD-L1 + population, Treated” value [3, 4] was 5883.

— US20220347267A1, “METHODS TO IMPROVE PATIENT RESPONSE TO IMMUNE CHECKPOINT INHIBITORS AND FUNCTIONAL TESTS TO PREDICT RESPONSE” (Biomarker Strategies, LLC, priority 2019, published 2022)
